Residue numbers refer to the chain shown, from its start.
T1: human IL-4Rα (human, UniProt P24394 26-232)
T1 construct: also called Hu IL-4Rα; hIL-4Rα
T1 sequence: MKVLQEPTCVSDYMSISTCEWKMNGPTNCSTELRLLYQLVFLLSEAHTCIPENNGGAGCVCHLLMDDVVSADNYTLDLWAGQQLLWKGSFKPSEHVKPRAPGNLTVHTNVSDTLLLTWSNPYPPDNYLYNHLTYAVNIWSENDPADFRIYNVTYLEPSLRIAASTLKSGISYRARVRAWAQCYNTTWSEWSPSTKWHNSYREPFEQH

T2: cynomolgus monkey IL-4Rα (cynomolgus monkey, UniProt P24394 26-231 (human entry), limits assumed)
T2 construct: also called Cyno IL-4Rα; cyIL-4Rα
T2 chain: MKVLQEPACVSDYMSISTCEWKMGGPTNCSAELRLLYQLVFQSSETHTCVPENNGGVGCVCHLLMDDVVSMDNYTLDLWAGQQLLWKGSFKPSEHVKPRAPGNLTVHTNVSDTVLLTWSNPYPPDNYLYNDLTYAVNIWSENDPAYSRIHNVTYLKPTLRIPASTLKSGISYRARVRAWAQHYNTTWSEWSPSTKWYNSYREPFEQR

T3: hIL-4Rα on cells (human, UniProt P24394 26-825)
T3 sequence: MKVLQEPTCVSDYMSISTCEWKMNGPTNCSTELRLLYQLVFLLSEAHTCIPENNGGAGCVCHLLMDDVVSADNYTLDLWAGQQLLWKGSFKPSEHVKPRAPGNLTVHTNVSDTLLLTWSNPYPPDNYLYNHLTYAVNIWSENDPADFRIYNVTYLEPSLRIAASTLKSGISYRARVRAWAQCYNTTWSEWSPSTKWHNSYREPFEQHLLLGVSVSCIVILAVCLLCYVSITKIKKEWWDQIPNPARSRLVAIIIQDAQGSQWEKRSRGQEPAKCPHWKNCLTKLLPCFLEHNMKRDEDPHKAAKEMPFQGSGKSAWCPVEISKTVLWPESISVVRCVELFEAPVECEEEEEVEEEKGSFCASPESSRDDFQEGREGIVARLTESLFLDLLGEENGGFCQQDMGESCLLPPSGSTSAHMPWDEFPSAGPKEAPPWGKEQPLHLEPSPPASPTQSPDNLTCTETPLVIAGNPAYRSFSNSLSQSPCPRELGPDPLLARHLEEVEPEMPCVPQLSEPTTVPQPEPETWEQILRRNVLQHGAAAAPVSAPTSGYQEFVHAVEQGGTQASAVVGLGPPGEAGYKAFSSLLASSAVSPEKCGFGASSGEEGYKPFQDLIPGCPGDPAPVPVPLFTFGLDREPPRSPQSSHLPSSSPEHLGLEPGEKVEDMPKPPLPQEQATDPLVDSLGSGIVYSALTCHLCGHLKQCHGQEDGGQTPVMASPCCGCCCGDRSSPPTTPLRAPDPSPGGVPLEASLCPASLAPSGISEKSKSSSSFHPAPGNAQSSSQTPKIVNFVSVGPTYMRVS

B1: Construct 24 (mAb432) (antibody, IgG4, V domains shown)
VH: EVQLVESGGGLEQPGGSLRLSCAGSGFTFRDFAMTWVRQAPGKGLEWVSSISGSGGNIYYADSVKGRFTISRDNSKNTLYLQMNSLRAEDTAVYYCAKDRLSIAVRPRYYGLDVWGQGTTVTVSS
VL: DIVMTQSPLSLPVTPGEPASISCTASQSLLYSIGKNYVDWYLQKSGQSPQLLIYLGNNRATGVPDRFSGSGSGTDFTLKISRVEAEDVGFYYCMQSLTSPYTFGQGTKLEIK
notes: VH/VL only
B2: Construct 38 (mAb471) (antibody, IgG4, V domains shown)
VH: B1 VH with I103V, A104T
VL: B1 VL with T24R, A25S, L55E, N58K, T61S
notes: VH/VL only
B3: Construct 31 (mAb443) (antibody, IgG4, V domains shown)
VH: B1 VH with I103V, A104T
VL: B1 VL with T24R, A25S, I33N, K35Y, V38L, N57S, T61S, S96A, T98Q, S99A
notes: VH/VL only
B4: Construct 38 (mAb471) with IgG1 YTE LALA heavy chain constant region (antibody, V domains shown)
VH: B1 VH with I103V, A104T
VL: B1 VL with T24R, A25S, L55E, N58K, T61S
B5: Construct 24 (mAb432) with IgG1 YTE LALA heavy chain constant region (antibody, V domains shown)
VH: B1 VH
VL: B1 VL
B6: Construct 31 (mAb443) with IgG1 YTE LALA heavy chain constant region (antibody, V domains shown)
VH: B1 VH with I103V, A104T
VL: B1 VL with T24R, A25S, I33N, K35Y, V38L, N57S, T61S, S96A, T98Q, S99A
B7: Construct 13 (mAb422) with IgG1 YTE LALA heavy chain constant region (antibody, V domains shown)
VH: B1 VH with I51V, I58T, I103V, A104T
VL: B1 VL with T24R, A25S, L29V, K35Y, N58K, T61S
B8: Construct 15 (mAb423) with IgG1 YTE LALA heavy chain constant region (antibody, V domains shown)
VH: B1 VH with I103K, A104T, V105I
VL: B1 VL with K35Y, N58K, T61S

molecular target: T1, human IL-4Rα; assay: KinExA
Protocol: Binding affinity (KD) of exemplary antibodies to human IL-4Rα was determined using the Kinetic Exclusion Assay (KinExA). Briefly, antibody and recombinant human IL-4Rα were equilibrated in solution. […] Samples were incubated for a time period ranging from 3.5 hours to 340 hours, to fully reach equilibrium. Once samples reached equilibrium, azlactone beads previously coated with recombinant human IL-4Rα were used to capture any free antibody from the equilibrated solution. […] The KinExA 4000 instrument was used to capture fluorescent signal and convert to a voltage signal that is directly proportional to the amount of free antibody in all the equilibrated samples, allowing for the determination of the apparent affinity of the antibody.

Row | KD Relative to Dupilumab | Kd [pM] | Binder
1 | 0.105 | 0.118 | B1
2 | 0.376 | 0.421 | B2
3 | 0.252 | 0.282 | B3

molecular target: T1, human IL-4Rα; assay: SPR, Carterra LSA;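 also: antibodies captured on an anti-human Fc sensor chip, antigen injected at several concentrations, association and dissociation rates fitted with a 1:1 Langmuir model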

Row | KD Relative to Dupilumab | Kd [pM] | Binder
4 | 0.79 | 8.91 | B1
5 | 0.52 | 5.89 | B2
6 | 0.73 | 8.29 | B3

Molecular target: T2, cynomolgus monkey IL-4Rα
Assay: SPR, Carterra LSA;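 also: antibodies captured on an anti-human Fc sensor chip, antigen injected at several concentrations, association and dissociation rates fitted with a 1:1 Langmuir model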

Row | KD Relative to Dupilumab | Kd [pM] | Binder
7 | 0.11 | 66900 | B1
8 | 0.4 | 249000 | B2
9 | 0.67 | 421000 | B3

molecular target: T3, hIL-4Rα on cells; assay: cell-based or functional assay

Row | Relative Inhibition of IL-4 induced pSTAT6 IC50 | Relative Inhibition of IL-13 induced pSTAT6 IC50 | Binder
10 | 0.629 relative to dupilumab | 0.586 relative to dupilumab | B1
11 | 0.723 relative to dupilumab | 1.56 relative to dupilumab | B2
12 | 1.23 relative to dupilumab | 1.61 relative to dupilumab | B3

molecular target: T3, hIL-4Rα on cells; assay: cell-based or functional assay; remark: another data set of the same source

Row | Inhibition of IL-4 induced pSTAT6 IC50 [nM] | Inhibition of IL-13 induced pSTAT6 IC50 [nM] | Binder
13 | 0.248 | 1.05 | B4
14 | 0.269 | 1.09 | B5
15 | 0.452 | 0.916 | B6
16 | 0.185 | 0.612 | B7
17 | 0.122 | 0.599 | B8

molecular target: T3, hIL-4Rα on cells; assay: cell-based or functional assay; remark: another data set of the same source

Row | Relative Inhibition of IL-4 induced TARC IC50 | Relative Inhibition of IL-13 induced TARC IC50 | Binder
18 | 0.445 relative to dupilumab | 0.594 relative to dupilumab | B1
19 | 1.17 relative to dupilumab | 1.63 relative to dupilumab | B2
20 | 1.37 relative to dupilumab | 0.703 relative to dupilumab | B3

molecular target: T3, hIL-4Rα on cells; assay: cell-based or functional assay; remark: another data set of the same source

Row | Inhibition of IL-4 induced TARC IC50 [pM] | Inhibition of IL-13 induced TARC IC50 [pM] | Binder
21 | 259 | 527 | B4
22 | 222 | 361 | B5
23 | 228 | 456 | B6
24 | 179 | 261 | B7
25 | 127 | 212 | B8

molecular target: T3, hIL-4Rα on cells; assay: cell-based or functional assay; remark: another data set of the same source

Row | Relative Inhibition of IL-4 induced TF-1 Proliferation IC50 | Relative Inhibition of IL-13 induced TF-1 Proliferation IC50 | Binder
26 | 1.03 relative to dupilumab | 0.693 relative to dupilumab | B1
27 | 1.04 relative to dupilumab | 1.2 relative to dupilumab | B2
28 | 1.25 relative to dupilumab | 1.24 relative to dupilumab | B3

molecular target: T3, hIL-4Rα on cells; assay: cell-based or functional assay; remark: another data set of the same source

Row | Inhibition of IL-4 induced TF-1 Proliferation IC50 [pM] | Inhibition of IL-13 induced TF-1 Proliferation IC50 [pM] | Binder
29 | 52 | 161 | B4
30 | 52 | 166 | B5
31 | 58 | 175 | B6
32 | 38 | 119 | B7
33 | 28 | 117 | B8

molecular target: T3, hIL-4Rα on cells; assay: FACS on HEK293 cells, competitor biotin-hIL-4;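 as to Relative Blockade of IL-4 Binding IC50: HEK293 cells stably co-expressing hIL-13Rα and hIL-4Rα, stained for 1 h at 4 °C, read-out as mean fluorescence intensity by flow cytometry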
Protocol: (§1) Briefly, HEK293 previously transduced to stably express both hIL-13Rα and hIL-4Rα were cultured and harvested. Cells were seeded at 200,000 cells in 100 uL per well. Cells were washed and the supernatant discarded. […] The cells were stained in this mixture at 4° C. for 1 hour. […] Cells were incubated 4° C. for 1 hour, protected from light. Cells were then washed and the MFI of cells in each well were recorded by FACS using a BD FACSCanto II. Subsequent data were analyzed using GraphPad Prism.

Row | Relative Blockade of IL-4 Binding IC50 | Binder
34 | 0.973 relative to dupilumab | B1
35 | 0.981 relative to dupilumab | B2
36 | 1.01 relative to dupilumab | B3

molecular target: T3, hIL-4Rα on cells; assay: FACS on HEK293 cells, competitor biotin-hIL-4; remark: another data set of the same source;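 as to Relative Blockade of IL-4 Binding IC50: HEK293 cells stably co-expressing hIL-13Rα and hIL-4Rα, stained for 1 h at 4 °C, read-out as mean fluorescence intensity by flow cytometry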
Protocol: as §1
(§2) The values reflect absolute IC₅₀ measurements.

Row | IC50 [pM] | Binder
37 | 271 | B4
38 | 234 | B5
39 | 279 | B6
40 | 238 | B7
41 | 230 | B8

molecular target: T3, hIL-4Rα on cells; assay: FACS on HEK293 cells, competitor biotin-hIL-13;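 as to Relative Blockade of IL-13 Binding IC50: stably transduced cells co-expressing both receptor chains, stained cold, with cell-bound signal read as mean fluorescence intensity by flow cytometry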
Protocol: as §1

Row | Relative Blockade of IL-13 Binding IC50 | Binder
42 | 0.825 relative to dupilumab | B1
43 | 0.996 relative to dupilumab | B2
44 | 0.964 relative to dupilumab | B3

molecular target: T3, hIL-4Rα on cells; assay: FACS on HEK293 cells, competitor biotin-hIL-13; remark: another data set of the same source;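 as to Relative Blockade of IL-13 Binding IC50: stably transduced cells co-expressing both receptor chains, stained cold, with cell-bound signal read as mean fluorescence intensity by flow cytometry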
Protocol: as §1, §2

Row | IC50 [pM] | Binder
45 | 226 | B4
46 | 234 | B5
47 | 209 | B6
48 | 235 | B7
49 | 204 | B8

Source: patent US20260193366A1 (APOGEE THERAPEUTICS, published 2026)
